Experimental data published in patent US20040059519A1.
Several values for one entry are separate records, joined by “and”; a condition that tells them apart may be missing. Identical values can stand only once. Each block holds one substance with its values, some of them ahead of it.

Columns and labels:
Alpha fetoprotein [1] = molecular target: Alpha fetoprotein (UniProt P02771); assay: multiplex sandwich, S10473 capture beads; AFP 0 ng/mL, washed
Alpha fetoprotein [2] = molecular target: Alpha fetoprotein (UniProt P02771); assay: multiplex sandwich, S10473 capture beads; AFP 1 ng/mL, washed
Alpha fetoprotein [3] = molecular target: Alpha fetoprotein (UniProt P02771); assay: multiplex sandwich, S10473 capture beads; AFP 2 ng/mL, washed
Alpha fetoprotein [4] = molecular target: Alpha fetoprotein (UniProt P02771); assay: multiplex sandwich, S10473 capture beads; AFP 16 ng/mL, washed
Alpha fetoprotein [5] = molecular target: Alpha fetoprotein (UniProt P02771); assay: multiplex sandwich, S10473 capture beads; AFP 31 ng/mL, washed
Alpha fetoprotein [6] = molecular target: Alpha fetoprotein (UniProt P02771); assay: multiplex sandwich, S10473 capture beads; AFP 31 ng/mL, no wash
Alpha fetoprotein [7] = molecular target: Alpha fetoprotein (UniProt P02771); assay: multiplex sandwich, S10473 capture beads; AFP 62 ng/mL, no wash
Alpha fetoprotein [8] = molecular target: Alpha fetoprotein (UniProt P02771); assay: multiplex sandwich, S10473 capture beads; AFP 125 ng/mL, no wash
[9] = molecular target: Human chorionic gonadotropin (human) (UniProt P01215); assay: MAB602 capture beads, flow cytometry; hCG 0.1 ng/mL, anti-AFP probe
Alpha fetoprotein [10] = molecular target: Alpha fetoprotein (UniProt P02771); assay: anti-AFP capture beads, flow cytometry; AFP 1.0 ng/mL, anti-AFP probe
[11] = molecular target: Human chorionic gonadotropin (human) (UniProt P01215); assay: anti-AFP capture beads, flow cytometry; hCG 1.0 ng/mL, anti-AFP probe
Alpha fetoprotein [12] = molecular target: Alpha fetoprotein (UniProt P02771); assay: multiplex no-wash sandwich, S10473 beads; serum Level 3, AFP 223 U/mL
Alpha fetoprotein [13] = molecular target: Alpha fetoprotein (UniProt P02771); assay: anti-AFP capture beads, flow cytometry; AFP 10.0 ng/mL, anti-AFP probe
[14] = molecular target: Human chorionic gonadotropin (human) (UniProt P01215); assay: anti-AFP capture beads, flow cytometry; hCG 10.0 ng/mL, anti-AFP probe
Alpha fetoprotein [15] = molecular target: Alpha fetoprotein (UniProt P02771); assay: multiplex no-wash sandwich, S10473 beads; serum Level 1, AFP 10.7 U/mL
Alpha fetoprotein [16] = molecular target: Alpha fetoprotein (UniProt P02771); assay: multiplex no-wash sandwich, S10473 beads; Unknown serum, AFP computed 39.59 U/mL
[17] = molecular target: Human chorionic gonadotropin (human) (UniProt P01215); assay: sandwich, MAB602 capture beads, flow cytometry; hCG 200 ng/mL
[18] = molecular target: Human chorionic gonadotropin (human) (UniProt P01215); assay: bead sandwich, flow cytometry; capture A1 beads, hCG 20.0 ug/mL
[19] = molecular target: Human chorionic gonadotropin (human) (UniProt P01215); assay: sandwich, MAB602 capture beads, flow cytometry; hCG 20000 ng/mL
[20] = molecular target: Human chorionic gonadotropin (human) (UniProt P01215); assay: multiplex sandwich, MAB602 capture beads; hCG 0.5 ng/mL, washed
[21] = molecular target: Human chorionic gonadotropin (human) (UniProt P01215); assay: multiplex sandwich, MAB602 capture beads; hCG 500 ng/mL, washed
[22] = molecular target: Human chorionic gonadotropin (human) (UniProt P01215); assay: multiplex sandwich, MAB602 capture beads; hCG 0.5 ng/mL, no wash
[23] = molecular target: Human chorionic gonadotropin (human) (UniProt P01215); assay: multiplex sandwich, MAB602 capture beads; hCG 250 ng/mL, no wash
[24] = molecular target: Human chorionic gonadotropin (human) (UniProt P01215); assay: MAB602 capture beads, flow cytometry; hCG 0.0 ng/mL, anti-hCG probe
Alpha fetoprotein [25] = molecular target: Alpha fetoprotein (UniProt P02771); assay: MAB602 capture beads, flow cytometry; AFP 10.0 ng/mL, anti-hCG probe
Alpha fetoprotein [26] = molecular target: Alpha fetoprotein (UniProt P02771); assay: MAB602 capture beads, flow cytometry; AFP 100.0 ng/mL, anti-hCG probe
Alpha fetoprotein [27] = molecular target: Alpha fetoprotein (UniProt P02771); assay: anti-AFP capture beads, flow cytometry; AFP 0.0 ng/mL, anti-hCG probe
Alpha fetoprotein [28] = molecular target: Alpha fetoprotein (UniProt P02771); assay: anti-AFP capture beads, flow cytometry; AFP 1.0 ng/mL, anti-hCG probe
[29] = molecular target: Human chorionic gonadotropin (human) (UniProt P01215); assay: multiplex no-wash sandwich, MAB602 beads; serum Level 2, hCG 26.4 mU/mL
[30] = molecular target: Human chorionic gonadotropin (human) (UniProt P01215); assay: multiplex no-wash sandwich, MAB602 beads; serum Level 3D, hCG 218 mU/mL
Alpha fetoprotein [31] = molecular target: Alpha fetoprotein (UniProt P02771); assay: anti-AFP capture beads, flow cytometry; AFP 1000.0 ng/mL, anti-hCG probe
[32] = molecular target: Human chorionic gonadotropin (human) (UniProt P01215); assay: multiplex no-wash sandwich, MAB602 beads; Unknown serum, hCG computed 218.55 mU/mL
[33] = molecular target: Neutravidin (deglycosylated avidin) (UniProt P02701); assay: multiplex, Neutravidin bead 40/70 without peptide, flow cytometry
[34] = molecular target: Neutravidin (deglycosylated avidin) (UniProt P02701); assay: single-analyte, Neutravidin bead 40/60 without peptide, flow cytometry
[35] = molecular target: Neutravidin (deglycosylated avidin) (UniProt P02701); assay: single-analyte, Neutravidin bead 70/40 without peptide, flow cytometry
Peptide 1 …-biotin = assay: multiplex peptide beads, flow cytometry; beads pre-incubated with free biotin 10 ug/mL
Peptide 2 …-biotin = assay: as above
Peptide 3 …-biotin = assay: as above
Peptide 7 …-biotin = assay: as above
Peptide 8 …-biotin = assay: as above

Chain of UniProt P01215 (P01215 25-116, chain 1 of 2, other chains not shown): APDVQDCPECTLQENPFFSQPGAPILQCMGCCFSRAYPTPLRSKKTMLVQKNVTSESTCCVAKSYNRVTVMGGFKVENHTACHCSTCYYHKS
Chain of UniProt P02771 (P02771 19-609 limits assumed): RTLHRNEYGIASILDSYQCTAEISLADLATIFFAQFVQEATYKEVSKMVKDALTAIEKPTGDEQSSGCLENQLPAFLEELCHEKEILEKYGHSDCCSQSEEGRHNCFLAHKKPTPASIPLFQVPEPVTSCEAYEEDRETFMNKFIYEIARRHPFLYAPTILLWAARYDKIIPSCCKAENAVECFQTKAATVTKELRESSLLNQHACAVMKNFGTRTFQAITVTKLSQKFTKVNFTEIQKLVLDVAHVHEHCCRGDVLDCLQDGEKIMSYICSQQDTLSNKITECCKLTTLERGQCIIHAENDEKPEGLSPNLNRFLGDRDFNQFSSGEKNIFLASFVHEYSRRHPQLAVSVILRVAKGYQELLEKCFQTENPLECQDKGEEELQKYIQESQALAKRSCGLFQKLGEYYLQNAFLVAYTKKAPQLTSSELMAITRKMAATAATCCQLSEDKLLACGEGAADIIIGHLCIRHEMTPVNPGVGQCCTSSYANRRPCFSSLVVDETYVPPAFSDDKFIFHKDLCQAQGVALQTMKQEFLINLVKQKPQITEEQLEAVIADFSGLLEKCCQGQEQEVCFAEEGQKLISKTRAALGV
Chain of UniProt P02701 (P02701 25-152 limits assumed): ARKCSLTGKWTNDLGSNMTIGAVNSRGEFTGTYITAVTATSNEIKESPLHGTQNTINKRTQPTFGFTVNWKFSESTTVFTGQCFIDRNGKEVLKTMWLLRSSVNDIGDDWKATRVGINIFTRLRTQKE

MIF of Fm (Alpha fetoprotein [1]): 13 | MIF of Fm (Alpha fetoprotein [2]): 35 | MIF of Fm (Alpha fetoprotein [3]): 59 | MIF of Fm (Alpha fetoprotein [4]): 347 | MIF of Fm (Alpha fetoprotein [5]): 612 | MIF of Fm (Alpha fetoprotein [6]): 639 | MIF of Fm (Alpha fetoprotein [7]): 980 | MIF of Fm (Alpha fetoprotein [8]): 1060 | MIF of Fm [9]: 49 | MIF of Fm (Alpha fetoprotein [10]): 98 | MIF of Fm [11]: 44 | MIF AVG (Alpha fetoprotein [12]): 1060 | MIF of FL1 (Alpha fetoprotein [12]): 1110 and 994 and 1080 | MIF of Fm (Alpha fetoprotein [13]): 103 | MIF of Fm [14]: 45 | MIF AVG (Alpha fetoprotein [15]): 78 | MIF of FL1 (Alpha fetoprotein [15]): 74 and 83 and 77 | MIF AVG (Alpha fetoprotein [16]): 276 | MIF of FL1 (Alpha fetoprotein [16]): 268 and 274 and 286
Substance: M20077 affinity purified polyclonal anti-AFP antibody, Bodipy FL-CASE labeled

MIF of Fm [17]: 9230 and 9400 | MIF of Fm [18]: 8790 | MIF of Fm [19]: 9340 and 9220 | MIF of Fm [20]: 175 | MIF of Fm [21]: 3340 | MIF of Fm [22]: 166 | MIF of Fm [23]: 1520 | MIF of Fm [24]: 48 | MIF of Fm (Alpha fetoprotein [25]): 47 | MIF of Fm (Alpha fetoprotein [26]): 47 | MIF of Fm (Alpha fetoprotein [27]): 61 | MIF of Fm (Alpha fetoprotein [28]): 50 | MIF AVG [29]: 31.7 | MIF of FL1 [29]: 32 and 34 and 29 | MIF AVG [30]: 272 | MIF of FL1 [30]: 268 and 276 and 271 | MIF of Fm (Alpha fetoprotein [31]): 57 | MIF AVG [32]: 272 | MIF of FL1 [32]: 270 and 264 and 283
Substance: AB633 affinity purified polyclonal anti-hCG antibody, Bodipy FL-CASE labeled

MIF of Fm [33]: 34 | MIF of Fm [34]: 54 | MIF of Fm [35]: 60 | MIF (Peptide 1 …-biotin): 17 | MIF (Peptide 2 …-biotin): 19 | MIF (Peptide 3 …-biotin): 22 | MIF (Peptide 7 …-biotin): 23 | MIF (Peptide 8 …-biotin): 34
Substance: MAB 384, Bodipy FL-X labeled (antibody)
